Assay results published in US20250215104A1 (WALDEN BIOSCIENCES, published 2025).

Columns and labels:
[1] = target: T1, human soluble urokinase plasminogen activator receptor (suPAR) (human, UniProt Q03405 23-303, limits assumed); experiment: BLI (Octet) off-rate screen of scFv clones
T1 construct: Column head says only 'human'; also called human suPAR; hsuPAR

[2] = target: T2, cynomolgus soluble urokinase plasminogen activator receptor (suPAR) (cynomolgus, UniProt Q9GK78 23-303, limits assumed); experiment: BLI (Octet) off-rate screen of scFv clones
T2 construct: Column head says only 'cynomologus'; also called cynomolgus suPAR; cynomolgus uPAR
T2 sequence (Q9GK78 23-303 limits assumed): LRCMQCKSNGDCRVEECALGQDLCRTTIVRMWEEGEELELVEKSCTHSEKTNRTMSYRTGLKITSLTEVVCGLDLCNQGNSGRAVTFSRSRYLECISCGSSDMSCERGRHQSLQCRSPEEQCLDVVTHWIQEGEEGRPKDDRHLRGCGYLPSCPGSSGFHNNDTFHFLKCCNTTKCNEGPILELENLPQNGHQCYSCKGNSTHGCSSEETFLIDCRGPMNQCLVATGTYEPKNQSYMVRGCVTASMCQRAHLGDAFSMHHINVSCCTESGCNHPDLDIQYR

T1 sequence (Q03405 23-303 limits assumed): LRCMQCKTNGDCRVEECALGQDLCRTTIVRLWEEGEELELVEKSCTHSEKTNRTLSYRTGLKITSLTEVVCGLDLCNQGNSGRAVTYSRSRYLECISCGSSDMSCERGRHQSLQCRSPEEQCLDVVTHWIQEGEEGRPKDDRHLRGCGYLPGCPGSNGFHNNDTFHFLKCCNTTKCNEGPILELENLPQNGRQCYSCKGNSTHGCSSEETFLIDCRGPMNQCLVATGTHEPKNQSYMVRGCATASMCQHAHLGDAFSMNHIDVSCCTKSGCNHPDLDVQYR

Binder | koff [1] [s⁻¹] | koff [2] [s⁻¹]
suPAR_DB02_D01 (scFv, V domains shown, scFv clone from phage display) VH: QVQLVQSGAEVKKPGASVKVSCKASGYTFTDYYMHWVRQAPGQGLEWMGWIDHENGNTIYDQKFQGRVTMTRDTSTSTVYMELSSLRSEDTAVYYCARGYDVDWFVYWGQGTLVTVSS VL: DIQMTQSPSSLSASVGDRVTITCSARSSVSYMYWYQQKPGKAPKLLIYRTSNLASGVPSRFSGSGSGTDFTLTISSLQPEDFATYYCQQYHSYPPTFGGGTKVEIK | 0.003 | 4.7e-07
suPAR_DB02_E09 (scFv, V domains shown, scFv clone from phage display) VH: QVQLVQSGAEVKKPGASVKVSCKASGFNIKDYYIHWVRQAPGQGLEWMGWIDPNSGGTNYAQKFQGRVTMTRDTSTSTVYMELSSLRSEDTAVYYCARGYDVDWFVYWGQGTLVTVSS VL: DIQMTQSPSSLSASVGDRVTITCSARSSVSYMYWYQQKPGKAPKLLIYRTSNLASGVPSRFSGSGSGTDFTLTISSLQPEDFATYYCQQYHSYPPTFGGGTKVEIK | 0.00473 | 0.00021
suPAR_DB02_D04 (scFv, V domains shown, scFv clone from phage display) VH: QVQLVQSGAEVKKPGASVKVSCKASGFTIKDYYMHWVRQAPGQGLEWMGWIDPDSGGTNYAEKFQGRVTMTRDTSTSTVYMELSSLRSEDTAVYYCARGYDVDWFVYWGQGTLVTVSS VL: DIQMTQSPSSLSASVGDRVTITCRARQSVSYMYWYQQKPGKAPKLLIYRTSNLASGVPSRFSGSGSGTDFTLTISSLQPEDFATYYCQQYHSYPPTFGGGTKVEIK | 0.0041 | 0.000281
suPAR_DB02_C09 (scFv, V domains shown, scFv clone from phage display) VH: QVQLVQSGAEVKKPGASVKVSCKASGYTFTGYYMHWVRQAPGQGLEWVGLINPSDGYTTYAQKFQGRVTMTRDTSTSTVYMELSSLRSEDTAVYYCARGYDVDWFVYWGQGTLVTVSS VL: DIQMTQSPSSLSASVGDRVTITCSARSSVSYMYWYQQKPGKAPKLLIYRTSNLASGVPSRFSGSGSGTDFTLTISSLQPEDFATYYCQQYHSYPPTFGGGTKVEIK | 0.00387 | 0.000335
suPAR_DB02_C07 (scFv, V domains shown, scFv clone from phage display) VH: QVQLVQSGAEVKKPGASVKVSCKASGYTFTDSYIHWVRQAPGQGLEWMGWIDANNGDTNYAERFQGRVTMTRDTSTSTVYMELSSLRSEDTAVYYCARGYDVDWFVYWGQGTLVTVSS VL: DIQMTQSPSSLSASVGDRVTITCSARSSVSYMYWYQQKPGKAPKLLIYRTSNLASGVPSRFSGSGSGTDFTLTISSLQPEDFATYYCQQYHSYPPTFGGGTKVEIK | 0.0026 | 
suPAR_DB02_F08 (scFv, V domains shown, scFv clone from phage display) VH: QVQLVQSGAEVKKPGASVKVSCKASGYTFTGYYIHWVRQAPGQGLEWMGWIDPENGNTIYAQKFQGRVTMTRDTSTSTVYMELSSLRSEDTAVYYCARGYDVDWFVYWGQGTLVTVSS VL: DIQMTQSPSSLSASVGDRVTITCSASSSISYMYWYQQKPGKAPKLLIYRTSNLASGVPSRFSGSGSGTDFTLTISSLQPEDFATYYCQQYHSYPPTFGGGTKVEIK | 0.0021 | 2.47e-05
suPAR_DB02_E11 (scFv, V domains shown, scFv clone from phage display) VH: QVQLVQSGAEVKKPGASVKVSCKASGGTFSNYYMHWVRQAPGQGLEWMGWIDHENGNTIYDQKFQGRVTMTRDTSTSTVYMELSSLRSEDTAVYYCARGYDVDWFVYWGQGTLVTVSS VL: DIQMTQSPSSLSASVGDRVTITCRARQSVSYMYWYQQKPGKAPKLLIYRTSSLASGVPSRFSGSGSGTDFTLTISSLQPEDFATYYCQQYHSYPPTFGGGTKVEIK | 0.00423 | 0.000376
suPAR_DB02_C06 (scFv, V domains shown, scFv clone from phage display) VH: QVQLVQSGAEVKKPGASVKVSCKASGFNITDYYMHWVRQAPGQGLEWMGWIDHENGNTIYDQKFQGRVTMTRDTSTSTVYMELSSLRSEDTAVYYCARGYDVDWFVYWGQGTLVTVSS VL: DIQMTQSPSSLSASVGDRVTITCSASQSVSYMYWYQQKPGKAPKLLIYRTSNLASGVPSRFSGSGSGTDFTLTISSLQPEDFATYYCQQYHSYPPTFGGGTKVEIK | 0.00475 | 0.000141
suPAR_DB02_F07 (scFv, V domains shown, scFv clone from phage display) VH: QVQLVQSGAEVKKPGASVKVSCKASGYTFTGYYVHWVRQAPGQGLEWMGWIDPEGGNTIYDQKFQGRVTMTRDTSTSTVYMELSSLRSEDTAVYYCARGYDVDWFVYWGQGTLVTVSS VL: DIQMTQSPSSLSASVGDRVTITCRARQSVSYMYWYQQKPGKAPKLLIYRTSNLQSGVPSRFSGSGSGTDFTLTISSLQPEDFATYYCQQYHSYPPTFGGGTKVEIK | 0.002 | 0.000384
suPAR_DB02_F06 (scFv, V domains shown, scFv clone from phage display) VH: QVQLVQSGAEVKKPGASVKVSCKASGFNFTDYYIHWVRQAPGQGLEWMGWIDPNSGSTNYAQNFQGRVTMTRDTSTSTVYMELSSLRSEDTAVYYCARGYMVDWFVYWGQGTLVTVSS VL: DIQMTQSPSSLSASVGDRVTITCSARSSVSYMYWYQQKPGKAPKLLIYRTSNLASGVPSRFSGSGSGTDFTLTISSLQPEDFATYYCQQYHSYPPTFGGGTKVEIK | 0.00495 | 0.000174
suPAR_DB02_F04 (scFv, V domains shown, scFv clone from phage display) VH: QVQLVQSGAEVKKPGASVKVSCKASGYTLTSYYVHWVRQAPGQGLEWMGWIDPKSGDTKYAHKFQGRVTMTRDTSTSTVYMELSSLRSEDTAVYYCARGYDVDWFVYWGQGTLVTVSS VL: DIQMTQSPSSLSASVGDRVTITCSARSSVSYMYWYQQKPGKAPKLLIYRTSNLASGVPSRFSGSGSGTDFTLTISSLQPEDFATYYCQQYHSYPPTFGGGTKVEIK | 0.00384 | 0.000453
suPAR_DB02_E05 (scFv, V domains shown, scFv clone from phage display) VH: QVQLVQSGAEVKKPGASVKVSCKASGFNIKDYYIHWVRQAPGQGLEWMGWVDPSSGATDYAQKFQGRVTMTRDTSTSTVYMELSSLRSEDTAVYYCARGYDVDWFVYWGQGTLVTVSS VL: DIQMTQSPSSLSASVGDRVTITCSARSSVSYMYWYQQKPGKAPKLLIYRTSNLASGVPSRFSGSGSGTDFTLTISSLQPEDFATYYCQQYHSYPPTFGGGTKVEIK | 0.00239 | 0.00146
suPAR_DB02_F11 (scFv, V domains shown, scFv clone from phage display) VH: QVQLVQSGAEVKKPGASVKVSCKASGYTFTSSYMHWVRQAPGQGLEWMGWIDHENGNTIYDQKFQGRVTMTRDTSTSTVYMELSSLRSEDTAVYYCARGYDVDWFVYWGQGTLVTVSS VL: DIQMTQSPSSLSASVGDRVTITCRARSSISYMYWYQQKPGKAPKLLIYRTSNLASGVPSRFSGSGSGTDFTLTISSLQPEDFATYYCQQYHSYPPTFGGGTKVEIK | 0.00198 | 0.000613
suPAR_DB02_F09 (scFv, V domains shown, scFv clone from phage display) VH: QVQLVQSGAEVKKPGASVKVSCKASGYTFTGYYMHWVRQAPGQGLEWMGWIDPEGGSTIYDQKFQGRVTMTRDTSTSTVYMELSSLRSEDTAVYYCAGGYDVDWFVYWGQGTLVTVSS VL: DIQMTQSPSSLSASVGDRVTITCSARSSVSYMYWYQQKPGKAPKLLIYRTSNLASGVPSRFSGSGSGTDFTLTISSLQPEDFATYYCQQYHSYPPTFGGGTKVEIK | 0.00166 | 0.000624
suPAR_DB02_D06 (scFv, V domains shown, scFv clone from phage display) VH: QVQLVQSGAEVKKPGASVKVSCKASGDTFANYYMHWVRQAPGQGLEWMGWIIPNSGDTNYAQKFQGRVTMTRDTSTSTVYMELSSLRSEDTAVYYCARGYDVDWFVYWGQGTLVTVSS VL: DIQMTQSPSSLSASVGDRVTITCSARSSVSYMYWYQQKPGKAPKLLIYRTSSLQSGVPSRFSGSGSGTDFTLTISSLQPEDFATYYCQQYHSYPPTFGGGTKVEIK | 0.00416 | 0.00051
